This test addresses T1, RNA polymerase II CTD tetraheptad CTD (UniProt P24928, CTD Ser5 phosphorylation).
T1 chain: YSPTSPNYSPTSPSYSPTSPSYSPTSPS
The test can be described thus: guanylyltransferase stimulation assay.

B1: Mce (protein)
chain: not shown
In general, Kd refers to the constant that tells how readily two partners part at equilibrium. A higher Kd goes with lower affinity. The molecule B1 registered a Kd of 1.5 µM.
